In US20180142007A1 (AXON NEUROSCIENCE, published 2018):

Assays:
Assay in all cases: direct ELISA, tau peptide coated on plate
tau peptide 282-311 = biological target: T1, tau peptide 282-311 (human)
T1 construct: Synthetic peptide (EZBiolabs), numbered on tau 2N4R; also called peptide derived from MTBRII
T1 peptide: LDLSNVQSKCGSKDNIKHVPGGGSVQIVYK

tau peptide 256-285 = biological target: T2, tau peptide 256-285 (human)
T2 construct: Synthetic peptide (EZBiolabs), numbered on tau 2N4R
T2 peptide: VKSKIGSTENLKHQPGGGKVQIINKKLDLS

tau peptide 314-342 = biological target: T3, tau peptide 314-342 (human)
T3 construct: Synthetic peptide (EZBiolabs), numbered on tau 2N4R
T3 peptide: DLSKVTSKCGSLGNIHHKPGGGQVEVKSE

tau peptide 352-380 = biological target: T4, tau peptide 352-380 (human)
T4 construct: Synthetic peptide (EZBiolabs), numbered on tau 2N4R
T4 peptide: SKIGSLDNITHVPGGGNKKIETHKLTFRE

Measured: binding result

B1: chimeric DC8E8 (isotype not stated where tested) (antibody)
VH: QVQLQQSGPELVKPGTSVKMPCKASGYIFTDYVISWVKQRTGQGLEWIGEIFPRSGSTYYNEKFKGKATLTADKSSNTAYMQLSSVTSEDSAVYFCARDYYGTSFAMDYWGQGTSVTVSS
light: DIVMSQSPSSLAVSAGEKVTMSCKSSQSLLNSRTRKNYLAWYQQKPGQSPKLLIYWASTRESGVPDRFTGSGSGTDFTLTISSVQAEDLAVYYCKQSFYLRTFGGGTKLDIKRTVAAPSVFIFPPSDEQLKSGTASVVCLLNNFYPREAKVQWKVDNALQSGNSQESVTEQDSKDSTYSLSSTLTLSKADYEKHKVYACEVTHQGLSSPVTKSFNRGEC
notes: Whole chimeric antibody with human constant regions; also called chimeric antibody
binds: all assays above

B2: mouse monoclonal antibody DC8E8 (antibody, mouse IgG1)
heavy: QVQLQQSGPELVKPGTSVKMPCKASGYIFTDYVISWVKQRTGQGLEWIGEIFPRSGSTYYNEKFKGKATLTADKSSNTAYMQLSSVTSEDSAVYFCARDYYGTSFAMDYWGQGTSVTVSSAKTTPPSVYPLAPGSAAQTNSMVTLGCLVKGYFPEPVTVTWNSGSLSSGVHTFPAVLQSDLYTLSSSVTVPSSTWPSQTVTCNVAHPASSTKVDKKIVPRDCGCKPCICTVPEVSSVFIFPPKPKDVLTITLTPKVTCVVVDISKDDPEVQFSWFVDDVEVHTAQTKPREEQINSTFRSVSELPIMHQDWLNGKEFKCRVNSAAFPAPIEKTISKTKGRPKAPQVYTIPPPKEQMAKDKVSLTCMITNFFPEDITVEWQWNGQPAENYKNTQPIMDTDGSYFVYSKLNVQKSNWEAGNTFTCSVLHEGLHNHHTEKSLSHSPGK
VL: DIVMSQSPSSLAVSAGEKVTMSCKSSQSLLNSRTRKNYLAWYQQKPGQSPKLLIYWASTRESGVPDRFTGSGSGTDFTLTISSVQAEDLAVYYCKQSFYLRTFGGGTKLDIK
notes: also called murine DC8E8; mouse DC8E8
binds: tau peptide 256-285 | tau peptide 314-342 | tau peptide 352-380
